From the nanobody polyreactivity screen of Harvey et al. (2022)

Test: yeast display, Sf9 membrane polyspecificity reagent, FACS + sequencing; frameworks hold sequencing errors
How it was run: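 Galactose-induced (36–48 hours) yeast carrying a synthetic nanobody display library were exposed to 10% biotinylated, detergent-solubilized Sf9 membrane reagent at 4 °C for 1 hour. FACS followed streptavidin microbead enrichment, using low and high (top ~1%) gates for expression (anti-HA) and reagent binding (streptavidin). Colony PCR, MiSeq 2 × 250 sequencing and CDR-length filtering followed. Labels for polyreactivity reflect the gate of origin.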

Sequence | polyreactivity (PSR sort gate)
QGQLVESGGGLVQAGGSLRLSCAASGFIFRNYAMGWYRQAPGKERELVAAISRGGSTYYADSVKGRFTISRDNAKNTVYLQMNSLKPEDTAVYYCAADASTYYGTQWASYYYWGQGTQVTVSS | high polyreactivity
QGQLVESGGGLVQAGGSLRLSCAASGFTFSYYAMGWYRQAPGKERELVAAISRSGGSTYYADSVKGRFTISRDNAKNTVYLQMNSLKPEDTEVYYCAKRIKDRSGEAYVGLYYWGQGTQVTVSS | high polyreactivity
QGQLVESGGGLVQAGGSLRLSCAASGFTFTRNTMGWYRQAPGKERELVAAITRGGSTNYADSVKGRFTISRDNAKNTVYLQLNSLKPEDTAVYYCNKGRNVVLVRTADDYWGQGTQVTVSS | low polyreactivity
QGQLVESGGGLVQAGGSLRLSCAASGGIFIFYAMGWYRQAPGKERELVAAISNVSSTNYADSVKGRFTISRDNAKNTVYLQMNSLKPEDTAVYYCNAVGVPSEYYSWGQGTQVTVSS | low polyreactivity
QGQLVESGGGLVQAGGSLRLSCAASGGTFLWNAMGWYRQAPGKERELVAAIRWSGARTYYADSVKGRFTISRDNAKNTVYLQMNSLKPEDTAVYYCASENYWYWPYNGMYYWGQGTQVTVSS | high polyreactivity
QGQLVESGGGLVQAGGSLRLSCAASGLIFTYYDMGWYRQAPGKERELVAAISRRGTSTYYADSVKGRFTISRDNAKNTVYFQMNSLKPEDTEVYYCAADYYYFDSQQGMDYWGQGTQVTVSS | high polyreactivity
QGQLVESGGGLVQAGGSLRLSCAASGLTFGYYDMGWYRQAPGKERELVAAITVRGGSTYYADSVKGRFTISRDNAKNTVYLQINSLKPEDTAVYYFNKRLFWSRHYYYWGQGTQVTVSS | high polyreactivity
QGQLVESGGGLVQAGGSLRLSCAASGLTFSPNAMGWYRQEPGKERELVAAISSSGGRTNYADSVKGRFTISRDNAKNPVYLLMNSLKPEDTAVYYCFTNSFYEDDDWGQGTQVTVSS | high polyreactivity
QGQLVESGGGLVQAGGSLRLSCAASGRIFNRNAMGWYRQAPGKERELVAAITRGGRTNYADSVKGRFTISRDNAQNTVYLQMNSLKPEDTAVYYCAAAYYGSHGRYDYWGQGTQVTVSS | high polyreactivity
QGQLVESGGGLVQAGGSLRLSCAASGRIFSYNTMGWSRQAPGKERELVAAISTSGGSPYYADSVKGRFTISRDNAKNTVYLQMNSLTPEDTAVYYCNTVWTFRTSSNYDFWGQGTQVTVSS | low polyreactivity
QGQLVESGGGLVQAGGSLRLSCAASGRIFTRYALGWYRQAPGNEREFVARSTGSGGRTYYADSVKGRFSISRDNAKNTVYLQMNSLKPEDTAVYYCNARRPSWHSYDYGYADYYWGQGTQVTVSS | high polyreactivity
QGQLVESGGGLVQAGGSLRLSCAASGRIFVKNAMGWYRQAPGKERELVAAINWRGTSTYYADSVKGRFTISRDNAKNTVYLQMNSLKPEDTAVYYCNRVLGYPYGVDYWGQGTQVTVSS | high polyreactivity
QGQLVESGGGLVQAGGSLRLSCAASGRIFYRTAMGWSSQAPGQERELVAVISGSGGRTYYADSVKGRFTIARDNAKNTVYLQMNSLKPEDTAVYYCARRAAYYSYLYSHYPWSYYYWGPGTQVTVSS | high polyreactivity
QGQLVESGGGLVQAGGSLRLSCAASGRTFIGNVMGWYRQAPGKERELVAAISKSGTRTYYADSVKGRFTISRDIAKNTVYLQMNSLKPEDTAVYYCAASSYTHKRYPSPYDYWGQGTQVTVSA | high polyreactivity
QGQLVESGGGLVQAGGSLRLSCAASGRTFPRYAMGWYRQAPGKERELVAVISFSGDSTSYADSVKGRFTISRDNAKNTVYLQMNSQKPEDTAVYYCKADYKSTVVRYSGSRNYWGQGTQVTVSS | low polyreactivity
QGQLVESGGGLVQAGGSLRLSCAASGRTFYYNGMGWYRQAPGKERELVATITNGGSTNYADSVKGRFTISRDNAKNTVYLQMNSLKPEDTAVYYCAKTLASDCYDYWGQGTQVTVSS | low polyreactivity
QGQLVESGGGLVQAGGSLRLSCAASGSIFGINAMGWYRQAPGKERELVAAISGSTSRTYYADSVKGRFTISRDNAKKTVYLQMNSLKPEDTAVYYCAVVGLRSVTRRSDYWGQGTQVTVSS | high polyreactivity
QGQLVESGGGLVQAGGSLRLSCAASGSIFPVYAMGWYRQAPGKEREFVARIRFSGGRTYYADSVQGRFTISRDNAKNTVYLQMNSLKPEDTAVYYCAKAQYSGRYGYWGQGTQVTVSS | high polyreactivity
QGQLVESGGGLVQAGGSLRLSCAASGSIIRSYAMGWYRQAPGKERELVASISRRGGSTYYADSVKGRFTISRDNAKNTVYLQMNSLKPEDTAVYYCAAVRYNSRVSTTPSEMYYWGQGTQVTVSS | low polyreactivity
QGQLVESGGGLVQAGGSLRLSCAASGSTFPSYAMGWYRQAPGKERELVAAISRRSSRTYYADSVKGRFTISRDNAKNTVYLQMNSLKPEDTAVYYCNADAGRHSDEYGYDYWGQGTEVTVSS | high polyreactivity
QGQLVESGGGLVQAGGSLRLSCAASGSTVPQYAMGWYRQAPGKERELVAVITDSGGSTYYADSVKGRFTISRDNAKNTVYLQMNSLKPEDTAVYYCAARRWSPRSGLGYGYWGQGTQVTVSS | high polyreactivity
QGQLVESGGGLVQAGGSLRLSCAASGYTFNYNTMGWYRQAPGKVRELVAAINTSGSTYYADSVKGRFTISRDNAKNTVYLQMNSLKPEDTAVYYCAVRVAYKYNYWGQGTQVTVSS | high polyreactivity

Sequence | polyreactivity (PSR sort gate)
QGQLVESGGGLVQAGGSLRLSCAATGLIFDTNAMGWYRQAPGKERELVAAINSTGSTNYADSVKGRFTISRDNAKNTVYLQMNSLKREDTAVYYCAVEYDSSAQPRTEFDYWGQGTQVTVSS | low polyreactivity
QGQLVESGGGLVQAGGSLRLSCPASGYIFWTNNMGWYRQSPGKERELVAAISYSGSSTYYADSVKGRFTISRDNAKNTVYLQMNSLKPEDTAVYYCAKKVRRYPTRYDSWGQGTQVTVSS | high polyreactivity
QGQLVESGGGLVQAGGSLRLTCAASGFSFFDYAMGWYRQAPWKERELVAAISWDGDNTYYADSVKGRFTISRDNAKYTVYLQMNSLKPDDSAVYYCNADYENYEQFFDYWGQGTQVTVSS | high polyreactivity
QGQLVESGGGLVQAGGSLRLTCAASGLTFWWYAMGWYRQAPGKERELVAAISSSGGSTYYADSVKGRFTISRDNAKNTVYLQMNSLKPEDTAVYYCAADGGFEYEYDYWGQGTQVTVTS | low polyreactivity
QGQLVESGGGLVQAGVSLRLTCAASGSTFLTNSMGWYRQAPGKEREFVAAISRTGGSTYYADSVKGRFTISRDNAKNTVYLQMNSLKPEDTAVYYCAVYPYGRWLNYWGQGTQVTVSS | high polyreactivity
QGQLVESGGGLVQGGGSLRLSCAACGSTLPSSARGWYIQAPGKDRELVAALRSGGTTNYADSVKGRFTISRDNAKNTVYVQMNSLKPEDTAVYYCATSRYLYWRSRYDYWGQGTQVTVSS | high polyreactivity
QGQLVESGGRLVQAGGSLRLSCAASGFTFDSYAMAWYRQAPGKERELVASISSSGSTNYADSVKGRFTISRDNAKNTVYLQMNSLKPEDTAVYYCAAVSRYPFIYEYWGQGTQVTVSS | low polyreactivity
QGQLVESGRGLVQAGGSLRLSCAASGRIFVIYDIGWYRQAPGKEREFVAAISWRSGSTYYADSVKGRFTISRDNAKNTVYLQMNSLKPDDTAVYDCNKDYHVRYYYWGQGTQVTVSS | low polyreactivity
QGQLVESGVGLVQAGGSLSLSCAASGSILNNYAMAWYIQAPGKERELVAAISSSGGTNYADSVKGRFTISRDNAKNTVYLQMNSLKPEDTAVYYCNADVLDGGYDYWGQGTQVTVSS | low polyreactivity
QGQLVESRGGLVQAGGRLRLSCAASGAIVSKNAMGWYRQAPGKERELVAAISRSAGSTYYADSVKGRFTISRVNAKNTVYLQLHSLKPEDTAVFYCAADWYYWQLWWGEGDYWGQGTQVTVSS | low polyreactivity
QGQLVESRGGLVQAGGSLRLSCAASGRTFYYYGMGWYIQAPGKERELVATINSGASTYYADSVKGRFTISRDNAKNTVYLQINSLKPEDTAVYYCDAAKENGKYDYWGQGTQVTVSS | high polyreactivity
QGQLVESWGGLVQAGGSLRLSSDASGRTFSLYAMGWYRQAPGKQTELVASITDSTGGSTYYADSVKGRFTISRDNAKNTVYLQMNSLKPADTAVYYSAAQDYQYSDYQWWFGFWGQGTQVTVSS | low polyreactivity
QGQLVETGGGLGQAGGSLRLSCAASGRIFPTNAMGWSRPAPGKERELVAAIPVSGGSTFYADSVKGRFTISRDNAKNTVYLQLNSLKPDDTAVDDCAVDDRASVGSRLDHWGQGTQVTVSS | low polyreactivity
QGQLVVSGGGLVQAGGSLRLSCAASGRTFSVNAMGGYRQAPGKERELVAAITSGASTNYADSVKGRFTISRDNAKNTVYLQMNSLKPEDTAVYYCAADATYGHVPAEYDYWGQGTQVTVSS | low polyreactivity
QGQRVESAGGLVQAGGSLRLSCDASGRIFDNYAMGWSSPAPGKERELVAAISRAGNTYADSVKGRVTISRDNAKNTVNLQMNSLNPEETAVFYCAARLYWGRYNYWGQGTQVTVSS | high polyreactivity
QGQRVESGGGLVQAGGSLRLSCAASGRIFRGYDMGWYRQSPGKERELVAAISGSGGSTYYADSVKGRFTISRDYAKNSVYLQMNSLQPEDTAVYYCAADQQSTGDWAGDYWGQGTQVTVSS | low polyreactivity
QGQRVESGGGLVQAGGSLRLSCAASGSIFHGYAMGWDRQAPGKERELVADITSGGGTYYADSVKGRFTISRDNAKTTVYLQMNSLKPEDTAVYYCATQKSRRYGYWVQGTQVTVSS | low polyreactivity
QHQLVESGGGLVQAGGSLRLSCAASGRTFYWNAMGWYRQAPGKERELVAGISNGGTTTYYADSVKGRFTISRDNAKNTVYLQMNSLKPEDTAVYYCAADIWYFDYDYWGQGTQVNVSS | high polyreactivity
QIQLVESGGGLDQAGGSLRLSCAASGSNFVWNAMGWSRQAPGKERELVAAISYTDGSTYYADSVKGRFTISRDNAKNTVYLQMNSLKREDTAVYYCAAAITPSYTGSQYDYWGQGTQVTVSS | low polyreactivity
QIQLVESGGGLLQAGGSLGLSCAASGSIFVKYAMGWYRQAPGKERELVAAITTGVGSTYYADSVKGRFTISRDNAKNTVYLQMNSVKPEDSAVFYWNAYAYFGPWWSFRATYDYWGQGTQVTVSS | low polyreactivity
QIQLVESGGGLVQAGGSLRLSCAASGFTFYANAMGWYRQAPGKERELVAAISSSGGSTYYADSVKGRFTISRDNAKNTVYLQMNSLKPEDTAVYYCNVYSRHWYRYEFDYWGQGTQVTVSS | high polyreactivity
